According to publication PMC7591920 (Nature Communications, 2020):
Bridge positions count the residues as written; N and C are the ends. Ends that are not written are not given here.

Experiments:
Settings in all cases: both partners purified
mouse TEAD4(210-427) [1] = target: T1, mouse TEAD4(210-427) (mouse, UniProt Q62296 210-427); experiment: SPR; GST-hTEAD1 or mTEAD4 amine-coupled to a CM5 chip (10 mM MES pH 6.4), peptides as analytes; 10 mM HEPES, 150 mM NaCl, 0.05% Tween-20, pH 7.4, 20 °C, 30 µL/min; steady-state fit, 1:1 model
T1 construct: mouse TEAD4, residues 210-427; The tag was cleaved with 3C protease only for the crystallisation; nothing is said for SPR and FP; also called mTEAD4; source: E. coli BL21 DE3 RIL, purified (His Trap, SEC)
T1 sequence (Q62296 210-427): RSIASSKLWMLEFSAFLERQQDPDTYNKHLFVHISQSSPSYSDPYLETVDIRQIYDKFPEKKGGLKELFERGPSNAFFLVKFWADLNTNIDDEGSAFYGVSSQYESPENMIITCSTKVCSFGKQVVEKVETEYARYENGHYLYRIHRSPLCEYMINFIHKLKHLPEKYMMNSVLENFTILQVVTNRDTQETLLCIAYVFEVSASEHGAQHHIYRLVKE

GST-hTEAD1(209-426) [2] = target: T2, GST-hTEAD1(209-426) (human, UniProt P28347 209-426); experiment: as above
T2 construct: A 3C protease site stands between tags and protein; also called human TEAD1; source: E. coli BL21 DE3 RIL, purified (His Trap, SEC); not shown: GST, N-terminal, kept
T2 sequence (P28347 209-426): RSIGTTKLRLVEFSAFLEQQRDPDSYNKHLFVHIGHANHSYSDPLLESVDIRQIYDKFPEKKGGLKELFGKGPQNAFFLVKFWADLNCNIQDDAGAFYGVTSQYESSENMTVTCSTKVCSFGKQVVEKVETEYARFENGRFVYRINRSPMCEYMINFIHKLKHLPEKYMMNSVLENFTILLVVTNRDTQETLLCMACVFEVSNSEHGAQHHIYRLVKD

mouse TEAD4(210-427) [3] = target: T1, mouse TEAD4(210-427); experiment: as above; remark: listed apart in the source
GST-hTEAD1(209-426) [4] = target: T2, GST-hTEAD1(209-426); experiment: as above; remark: listed apart in the source
mouse TEAD4(210-427) [5] = target: T1, mouse TEAD4(210-427); experiment: as above; remark: listed apart in the source
mouse TEAD4(210-427) [6] = target: T1, mouse TEAD4(210-427); experiment: fluorescence polarisation; competition: acetylated peptide titrated (50 µM-6 pM) against mTEAD4 (400 nM) with a FITC-labelled tracer peptide (10 nM; tracer not named); read after 1 h
GST-hTEAD1(209-426) [7] = target: T2, GST-hTEAD1(209-426); experiment: SPR; GST-hTEAD1 or mTEAD4 amine-coupled to a CM5 chip (10 mM MES pH 6.4), peptides as analytes; 10 mM HEPES, 150 mM NaCl, 0.05% Tween-20, pH 7.4, 20 °C, 30 µL/min; steady-state fit, 1:1 model; remark: listed apart in the source
mouse TEAD4(210-427) [8] = target: T1, mouse TEAD4(210-427); experiment: as above; remark: listed apart in the source

Kd (GST-hTEAD1(209-426) [4]) [nM] | Kd (mouse TEAD4(210-427) [5]) [nM] | IC50 (mouse TEAD4(210-427) [6]) [nM] | also measured | Binder
– | – | – | Kd (mouse TEAD4(210-427) [1]): 700 nM | YAP(50-100) (peptide, UniProt P46937 50-100, looked up, yes-associated protein YAP, residues 50-100) peptide: AGHQIVHVRGDSETDLEALFNAVMNPKTANVPQTVPMRLRKLPDSFFKPPE
– | – | – | Kd (GST-hTEAD1(209-426) [2]): 3100 nM; Kd (mouse TEAD4(210-427) [3]): 2400 nM | Ac-SVEDHFAKALGDTWLQIKAA (VGL4 two-helix motif with E at 235, not cyclised; numbers count on: mouse VGL4 as in PDB 4LN0; Synthesised on Rink amide resin: C-terminal amide surmised; also called linear version of 4E; source: synthetic peptide) [peptide 4E(open), acetylated]
7800 ± 150 | – | – | – | Ac-SVEDHFAKALGDTALQIKAA (lactam 3-18, macrocyclic VGL4 two-helix motif 4E with one alanine; numbers count on: mouse VGL4 as in PDB 4LN0; Synthesised on Rink amide resin: C-terminal amide surmised; source: synthetic peptide) [peptide 23 (alanine scan of 4E), acetylated]
> 100000 | > 100000 | > 100000 | – | Ac-SVEDHFAKALGATWLQIKAA (lactam 3-18, macrocyclic VGL4 two-helix motif 4E with one alanine; numbers count on: mouse VGL4 as in PDB 4LN0; Synthesised on Rink amide resin: C-terminal amide surmised; source: synthetic peptide) [peptide 21 (alanine scan of 4E), acetylated]
1100 ± 60 | 2000 ± 140 | 100 ± 10 | – | Ac-SVEDHFAKALGDTWAQIKAA (lactam 3-18, macrocyclic VGL4 two-helix motif 4E with one alanine; numbers count on: mouse VGL4 as in PDB 4LN0; Synthesised on Rink amide resin: C-terminal amide surmised; source: synthetic peptide) [peptide 24 (alanine scan of 4E), acetylated]
– | – | – | Kd (GST-hTEAD1(209-426) [7]): 830 ± 780 nM; Kd (mouse TEAD4(210-427) [8]): 1500 ± 1000 nM | Ac-SVDDHFAKALGDTWLQIKAA (VGL4 two-helix motif (helices alpha2/alpha3); Synthesised on Rink amide resin: C-terminal amide surmised; source: synthetic peptide) [peptide 4, acetylated (two-helix motif of VGL4)]
1700 ± 10 | 2800 ± 60 | 280 ± 90 | – | Ac-SVEDHFAAALGDTWLQIKAA (lactam 3-18, macrocyclic VGL4 two-helix motif 4E with one alanine; numbers count on: mouse VGL4 as in PDB 4LN0; Synthesised on Rink amide resin: C-terminal amide surmised; source: synthetic peptide) [peptide 19 (alanine scan of 4E), acetylated]
> 100000 | > 100000 | > 100000 | – | Ac-SVEDHFAKAAGDTWLQIKAA (lactam 3-18, macrocyclic VGL4 two-helix motif 4E with one alanine; numbers count on: mouse VGL4 as in PDB 4LN0; Synthesised on Rink amide resin: C-terminal amide surmised; source: synthetic peptide) [peptide 20 (alanine scan of 4E), acetylated]
> 100000 | > 100000 | > 50000 | – | Ac-SVEDHAAKALGDTWLQIKAA (lactam 3-18, macrocyclic VGL4 two-helix motif 4E with one alanine; numbers count on: mouse VGL4 as in PDB 4LN0; Synthesised on Rink amide resin: C-terminal amide surmised; source: synthetic peptide) [peptide 18 (alanine scan of 4E), acetylated]
91000 ± 14000 | – | – | – | Ac-SVEDHFAKALGDAWLQIKAA (lactam 3-18, macrocyclic VGL4 two-helix motif 4E with one alanine; numbers count on: mouse VGL4 as in PDB 4LN0; Synthesised on Rink amide resin: C-terminal amide surmised; source: synthetic peptide) [peptide 22 (alanine scan of 4E), acetylated]
1000 ± 370 | 1500 ± 370 | 2100 ± 560 | – | Ac-SAEDHFAKALGDTWLQIKAA (lactam 3-18, macrocyclic VGL4 two-helix motif 4E with one alanine; numbers count on: mouse VGL4 as in PDB 4LN0; Synthesised on Rink amide resin: C-terminal amide surmised; source: synthetic peptide) [peptide 15 (alanine scan of 4E), acetylated]
